Test results from the supplement of paper PMC9732359.
± gives the uncertainty stated by the source.

Assay: protein stability index of a GFP-peptide fusion (yeast GPS) (PSI 1-4); higher = more stable; sorted into four equal gates, so the index is relative within each strain
In short: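 For each peptide, the protein stability index sums the read frequency in every gate after multiplying it by the gate number. Read frequencies came from plasmids that were PCR-amplified from each gate and Illumina-sequenced, with reads assigned to strains by barcodes. The gates were four equal bins of GFP/Cherry fluorescence ratio applied to mid-log yeast in leucine-free medium carrying a pooled library of tiled 17-residue yeast protein peptides fused downstream of GFP on a Cherry-expressing plasmid.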

## RSQDVRSTDRDRVKVIE [CSL4]
doa10∆
  protein stability index: 3.01 ± 0.16
san1∆
  protein stability index: 3.27 ± 0.12
ubr1∆
  protein stability index: 2.97 ± 0.079

## KTHRGLRKVACIGAWHP [RPL3]
doa10∆
  protein stability index: 1.41 ± 0.064
pdr5∆
  protein stability index: 3.19 ± 0.12
san1∆
  protein stability index: 2.23 ± 0.087
ubr1∆
  protein stability index: 2.92 ± 0.076

## LELIGVLSINPDMYERK [MED7]
doa10∆
  protein stability index: 2.73 ± 0.077
pdr5∆
  protein stability index: 2.98 ± 0.086
san1∆
  protein stability index: 2.89 ± 0.053
ubr1∆
  protein stability index: 2.73 ± 0.061

## IDEHIDLGIKYDPSIGI [RPL11A]
doa10∆
  protein stability index: 2.84 ± 0.035
pdr5∆
  protein stability index: 3.06 ± 0.039
san1∆
  protein stability index: 2.91 ± 0.03
ubr1∆
  protein stability index: 2.903 ± 0.029

## AESMCQELELPGEFVTA [SNF5]
doa10∆
  protein stability index: 2.4 ± 0.061
pdr5∆
  protein stability index: 2.53 ± 0.057
san1∆
  protein stability index: 2.62 ± 0.048
ubr1∆
  protein stability index: 2.46 ± 0.081

## NGDKKVDIYSLPLISTD [YMR129W/POM152]
doa10∆
  protein stability index: 2.88 ± 0.076
pdr5∆
  protein stability index: 2.76 ± 0.056
san1∆
  protein stability index: 2.88 ± 0.034
ubr1∆
  protein stability index: 3.03 ± 0.051

## PRQLHNTHWGLVCPAET [RPB2]
doa10∆
  protein stability index: 1.6 ± 0.089
pdr5∆
  protein stability index: 1.7 ± 0.07
san1∆
  protein stability index: 1.47 ± 0.12
ubr1∆
  protein stability index: 1.2 ± 0.088

## QLTEFWTELCQREFKEI [NNF1]
doa10∆
  protein stability index: 2.98 ± 0.21
pdr5∆
  protein stability index: 3.41 ± 0.16
san1∆
  protein stability index: 3.06 ± 0.07
ubr1∆
  protein stability index: 3.09 ± 0.069

## QANTEPENITKREASRG [MCD1]
doa10∆
  protein stability index: 3.01 ± 0.079
pdr5∆
  protein stability index: 2.84 ± 0.073
san1∆
  protein stability index: 3.03 ± 0.06
ubr1∆
  protein stability index: 3.13 ± 0.047

## VTALEVLSLGRPNLPTH [RGR1]
doa10∆
  protein stability index: 2.93 ± 0.14
san1∆
  protein stability index: 2.18 ± 0.14
ubr1∆
  protein stability index: 2.33 ± 0.079

## GKAATAKETHTKPSETP [YOR098C/NUP1]
doa10∆
  protein stability index: 2.57 ± 0.098
pdr5∆
  protein stability index: 2.84 ± 0.094
san1∆
  protein stability index: 2.76 ± 0.077
ubr1∆
  protein stability index: 2.37 ± 0.091

## QVVGPFHTSFSAVVGPN [SMC4]
doa10∆
  protein stability index: 2.53 ± 0.063
pdr5∆
  protein stability index: 2.39 ± 0.055
san1∆
  protein stability index: 2.78 ± 0.055
ubr1∆
  protein stability index: 2.73 ± 0.037

## TGAYIANRVTDKLTRVH [PRE3]
doa10∆
  protein stability index: 1.57 ± 0.068
pdr5∆
  protein stability index: 1.76 ± 0.059
san1∆
  protein stability index: 1.59 ± 0.083
ubr1∆
  protein stability index: 1.54 ± 0.056

## YGESDIHFREHQSELII [YMR129W/POM152]
doa10∆
  protein stability index: 2.31 ± 0.089
pdr5∆
  protein stability index: 2.89 ± 0.096
san1∆
  protein stability index: 2.21 ± 0.13
ubr1∆
  protein stability index: 2.49 ± 0.077

## SVDITGGPWFTDGELDI [RPC34]
doa10∆
  protein stability index: 3.04 ± 0.14
pdr5∆
  protein stability index: 3.43 ± 0.12
san1∆
  protein stability index: 3.12 ± 0.13
ubr1∆
  protein stability index: 3.18 ± 0.078

## YNEFLYSKAGREELERV [QCR8]
doa10∆
  protein stability index: 2.86 ± 0.11
pdr5∆
  protein stability index: 2.73 ± 0.19
san1∆
  protein stability index: 3.35 ± 0.1
ubr1∆
  protein stability index: 2.98 ± 0.1

## EEYVINLLKVSVDICNN [ECM29]
doa10∆
  protein stability index: 2.15 ± 0.064
pdr5∆
  protein stability index: 2.58 ± 0.063
san1∆
  protein stability index: 2.7 ± 0.048
ubr1∆
  protein stability index: 2.65 ± 0.053

## KDLQWLEFARITPMNDD [SIN4]
doa10∆
  protein stability index: 2.94 ± 0.1
pdr5∆
  protein stability index: 3.19 ± 0.088
san1∆
  protein stability index: 3.14 ± 0.055
ubr1∆
  protein stability index: 3.33 ± 0.097

## NNFRESDIIILKGEIED [SIR4]
doa10∆
  protein stability index: 3.05 ± 0.18
pdr5∆
  protein stability index: 2.12 ± 0.091
san1∆
  protein stability index: 2.32 ± 0.13
ubr1∆
  protein stability index: 2.93 ± 0.13

## VTLRKSLYTNTSRKALE [RPL3]
doa10∆
  protein stability index: 2.66 ± 0.069
pdr5∆
  protein stability index: 2.26 ± 0.059
san1∆
  protein stability index: 1.78 ± 0.078
ubr1∆
  protein stability index: 1.78 ± 0.072

## TRLVQLREFRITHNTNI [GRR1]
doa10∆
  protein stability index: 1.23 ± 0.11
pdr5∆
  protein stability index: 1.16 ± 0.06
san1∆
  protein stability index: 1.04 ± 0.26
ubr1∆
  protein stability index: 1.38 ± 0.09

## APLFKKNSSRPMPPIRG [SMD3]
doa10∆
  protein stability index: 2.42 ± 0.059
pdr5∆
  protein stability index: 2.29 ± 0.064
san1∆
  protein stability index: 2.39 ± 0.062
ubr1∆
  protein stability index: 2.5 ± 0.061

## DVSLLLQRDLFIRLPHW [RGR1]
doa10∆
  protein stability index: 2.5 ± 0.087
pdr5∆
  protein stability index: 2.51 ± 0.063
san1∆
  protein stability index: 2.2 ± 0.073
ubr1∆
  protein stability index: 2.55 ± 0.083

## WYQFSNSKDHKKITLQL [SIN4]
doa10∆
  protein stability index: 3.35 ± 0.13
pdr5∆
  protein stability index: 3.47 ± 0.12
san1∆
  protein stability index: 2.47 ± 0.22
ubr1∆
  protein stability index: 2.86 ± 0.068

## QQPTASDNIASLQYINI [SMD1]
doa10∆
  protein stability index: 3.27 ± 0.09
pdr5∆
  protein stability index: 3.27 ± 0.098
san1∆
  protein stability index: 3.13 ± 0.12
ubr1∆
  protein stability index: 3.24 ± 0.078

## GILGNKAQAKMDKRAKT [RPL8B]
doa10∆
  protein stability index: 3.58 ± 0.12
pdr5∆
  protein stability index: 3.48 ± 0.15
san1∆
  protein stability index: 3.4 ± 0.058
ubr1∆
  protein stability index: 3.63 ± 0.079

## IQELRKLLKSLLLNYLE [MED7]
doa10∆
  protein stability index: 1.71 ± 0.056
pdr5∆
  protein stability index: 1.24 ± 0.069
san1∆
  protein stability index: 1.12 ± 0.12
ubr1∆
  protein stability index: 1.04 ± 0.1

## CDKSVCRKCYARLPPRA [RPL40A]
doa10∆
  protein stability index: 2.5 ± 0.078
pdr5∆
  protein stability index: 2.93 ± 0.073
san1∆
  protein stability index: 2.56 ± 0.07
ubr1∆
  protein stability index: 2.66 ± 0.062

## IASTEKPENKTDKVSLS [SIR4]
doa10∆
  protein stability index: 3.21 ± 0.069
pdr5∆
  protein stability index: 3.1 ± 0.09
san1∆
  protein stability index: 3.17 ± 0.067
ubr1∆
  protein stability index: 2.89 ± 0.088

## LGPLFKKIVDDTIMENP [IRR1]
doa10∆
  protein stability index: 2.62 ± 0.071
pdr5∆
  protein stability index: 2.88 ± 0.066
san1∆
  protein stability index: 2.44 ± 0.13
ubr1∆
  protein stability index: 2.82 ± 0.063

## NSTHLLPLQPIEIDYTV [SNF12]
doa10∆
  protein stability index: 2.34 ± 0.044
pdr5∆
  protein stability index: 2.27 ± 0.044
san1∆
  protein stability index: 2.27 ± 0.051
ubr1∆
  protein stability index: 2.21 ± 0.036

## TLRCSVVEACGNIVAEL [YCS4]
doa10∆
  protein stability index: 1.87 ± 0.095
pdr5∆
  protein stability index: 2.19 ± 0.093
san1∆
  protein stability index: 2.17 ± 0.15
ubr1∆
  protein stability index: 1.55 ± 0.062

## RGHRIRREFKQYSLERN [PRP8]
doa10∆
  protein stability index: 2.44 ± 0.17
pdr5∆
  protein stability index: 2.61 ± 0.094
san1∆
  protein stability index: 2.81 ± 0.23
ubr1∆
  protein stability index: 1.97 ± 0.12

## STVSANHSNNDIPTIAD [BRN1]
doa10∆
  protein stability index: 3.22 ± 0.097
pdr5∆
  protein stability index: 3.03 ± 0.093
san1∆
  protein stability index: 3.02 ± 0.069
ubr1∆
  protein stability index: 3.24 ± 0.074

## KSHKQTIVTGGGSGNGD [RPP1]
doa10∆
  protein stability index: 3.15 ± 0.27
pdr5∆
  protein stability index: 3.55 ± 0.15
ubr1∆
  protein stability index: 3.44 ± 0.2

## LLNRIPRMYHIGLRQFQ [POP1]
doa10∆
  protein stability index: 2.09 ± 0.099
pdr5∆
  protein stability index: 1.51 ± 0.077
san1∆
  protein stability index: 1.72 ± 0.18
ubr1∆
  protein stability index: 1.3 ± 0.11

## FMDNSYDIDEIDHSDES [ESC2]
san1∆
  protein stability index: 2.66 ± 0.14
ubr1∆
  protein stability index: 2.82 ± 0.13

## SVDMSALKDPQTDADRV [RIP1]
doa10∆
  protein stability index: 3.27 ± 0.079
pdr5∆
  protein stability index: 3.68 ± 0.23
san1∆
  protein stability index: 3.2 ± 0.23
ubr1∆
  protein stability index: 3.56 ± 0.15

## DAFVATAFATEFFVQVL [DLS1]
doa10∆
  protein stability index: 2.98 ± 0.089
pdr5∆
  protein stability index: 3.03 ± 0.089
san1∆
  protein stability index: 3.12 ± 0.077
ubr1∆
  protein stability index: 3.09 ± 0.072

## KVWLDPNETSEIAQANS [RPL19A]
doa10∆
  protein stability index: 3.16 ± 0.23
pdr5∆
  protein stability index: 3.69 ± 0.24
ubr1∆
  protein stability index: 3.04 ± 0.29

## ETIIEADKSLPSSMATL [YJR042W/NUP85]
doa10∆
  protein stability index: 2.75 ± 0.083
pdr5∆
  protein stability index: 2.85 ± 0.061
san1∆
  protein stability index: 3 ± 0.046
ubr1∆
  protein stability index: 2.91 ± 0.055

## SVDKKVDSGEERNEQER [SWI3]
doa10∆
  protein stability index: 3.53 ± 0.092
pdr5∆
  protein stability index: 3.35 ± 0.14
san1∆
  protein stability index: 3.25 ± 0.11
ubr1∆
  protein stability index: 3.54 ± 0.077

## SVIVKFHSEPDRDENWI [LIN1]
doa10∆
  protein stability index: 2.69 ± 0.072
pdr5∆
  protein stability index: 3.08 ± 0.071
san1∆
  protein stability index: 2.96 ± 0.056
ubr1∆
  protein stability index: 2.75 ± 0.044

## FVSRPDRTMLAPMDFAI [FAS1]
doa10∆
  protein stability index: 2.68 ± 0.12
pdr5∆
  protein stability index: 2.82 ± 0.11
san1∆
  protein stability index: 2.63 ± 0.11
ubr1∆
  protein stability index: 2.68 ± 0.11

## RSLLLSRVRADDLSTRF [RRP43]
doa10∆
  protein stability index: 2.89 ± 0.21
pdr5∆
  protein stability index: 3.63 ± 0.17
ubr1∆
  protein stability index: 2.92 ± 0.16

## RRIKEAEENLKKRIRLP [YIL149C/MLP2]
doa10∆
  protein stability index: 2.26 ± 0.08
pdr5∆
  protein stability index: 2.23 ± 0.067
san1∆
  protein stability index: 1.88 ± 0.12
ubr1∆
  protein stability index: 2.02 ± 0.07

## KLPLSVINVSAQRDRRY [RPS17A]
doa10∆
  protein stability index: 1.8 ± 0.064
pdr5∆
  protein stability index: 1.77 ± 0.058
san1∆
  protein stability index: 1.43 ± 0.23
ubr1∆
  protein stability index: 1.66 ± 0.15

## EDRNKIHQYLFQEGVVV [RPS10A]
doa10∆
  protein stability index: 2.37 ± 0.064
pdr5∆
  protein stability index: 2.37 ± 0.06
san1∆
  protein stability index: 1.66 ± 0.12
ubr1∆
  protein stability index: 2.61 ± 0.058

## AALFRLHKFLTKWGLIN [SWI3]
doa10∆
  protein stability index: 2.83 ± 0.22
san1∆
  protein stability index: 2.94 ± 0.19
ubr1∆
  protein stability index: 2.66 ± 0.23

## LAAVPAAGPASAGGAAA [RPP2A]
doa10∆
  protein stability index: 2.35 ± 0.085
pdr5∆
  protein stability index: 1.58 ± 0.063
san1∆
  protein stability index: 1.4 ± 0.26
ubr1∆
  protein stability index: 1.61 ± 0.071
